Patent publication US20220023385A1 (Stanford University, published 2022)

T1: human FGFR1 beta (IIIc)-Fc (R&D Systems) (human, UniProt P11362-14 22-285, limits assumed)
T1 construct: Bought reagent; also called FGFR1-Fc; soluble FGFR1-Fc; not shown: Fc domain, detected with anti-Human IgG
T1 sequence (looked up): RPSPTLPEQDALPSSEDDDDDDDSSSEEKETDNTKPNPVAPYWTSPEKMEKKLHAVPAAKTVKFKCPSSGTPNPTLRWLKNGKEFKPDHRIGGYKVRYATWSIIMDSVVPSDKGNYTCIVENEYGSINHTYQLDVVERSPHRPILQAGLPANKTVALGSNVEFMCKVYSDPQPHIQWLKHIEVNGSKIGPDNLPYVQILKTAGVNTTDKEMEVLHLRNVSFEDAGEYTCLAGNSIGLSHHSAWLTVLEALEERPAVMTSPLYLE


How the values were obtained:
[1] = biological target: Met receptor on MDCK cells; test: cell-based or functional assay
[2] = biological target: T2, Met-Fc fusion protein (R&D Systems) labeled with Alexa 488 (UniProt P08581 25-932, Alexa 488 label); test: flow cytometry, yeast display, after heating to varying temperatures
T2 construct: Bought reagent; also called Met-Fc A488; soluble Met-Fc; not shown: Fc domain

[3] = biological target: T1, human FGFR1 beta (IIIc)-Fc (R&D Systems); test: flow cytometry on yeast displaying the peptide, stained for c-myc and FGFR1-Fc
Protocol: FIG. 15. Non-binding of peptide artifacts to FGFR1-Fc. Yeast cells expressing RTTTS or HTTS peptides on their cell surface were incubated with 10 nM FGFR1-Fc. Cells were stained with fluorescent antibodies for expression (α-c-myc) and binding (α-FGFR1-Fc).
50,000 induced yeast cells were incubated with various concentrations of FGFR1-Fc in phosphate-buffered saline with 1 g/L BSA (PBSA) at room temperature. Cells were incubated in sufficiently large volumes to avoid ligand depletion and long enough times (typically 3 to 24 hours) to reach equilibrium. During the last 30 minutes of incubation, yeast cells were incubated with 1:2500 dilution of chicken anti-c-Myc (Invitrogen) in PBSA. Yeast were pelleted, washed, then incubated with 1:200 dilution of secondary antibodies on ice for 10 min: anti-Human IgG-FITC (Sigma Aldrich) against FGFR1-Fc and anti-chicken-IgY-PE (Santa Cruz Biotechnology) against anti-c-myc. Yeast were washed, pelleted, and resuspended in PBSA immediately before analysis by flow cytometry using EMD Millipore Guava EasyCyte. Flow cytometry data were analyzed using FlowJo (v7.6.1). Binding curves were plotted and Kd values were obtained using GraphPad Prism 6.

T2 sequence (P08581 25-932 limits assumed): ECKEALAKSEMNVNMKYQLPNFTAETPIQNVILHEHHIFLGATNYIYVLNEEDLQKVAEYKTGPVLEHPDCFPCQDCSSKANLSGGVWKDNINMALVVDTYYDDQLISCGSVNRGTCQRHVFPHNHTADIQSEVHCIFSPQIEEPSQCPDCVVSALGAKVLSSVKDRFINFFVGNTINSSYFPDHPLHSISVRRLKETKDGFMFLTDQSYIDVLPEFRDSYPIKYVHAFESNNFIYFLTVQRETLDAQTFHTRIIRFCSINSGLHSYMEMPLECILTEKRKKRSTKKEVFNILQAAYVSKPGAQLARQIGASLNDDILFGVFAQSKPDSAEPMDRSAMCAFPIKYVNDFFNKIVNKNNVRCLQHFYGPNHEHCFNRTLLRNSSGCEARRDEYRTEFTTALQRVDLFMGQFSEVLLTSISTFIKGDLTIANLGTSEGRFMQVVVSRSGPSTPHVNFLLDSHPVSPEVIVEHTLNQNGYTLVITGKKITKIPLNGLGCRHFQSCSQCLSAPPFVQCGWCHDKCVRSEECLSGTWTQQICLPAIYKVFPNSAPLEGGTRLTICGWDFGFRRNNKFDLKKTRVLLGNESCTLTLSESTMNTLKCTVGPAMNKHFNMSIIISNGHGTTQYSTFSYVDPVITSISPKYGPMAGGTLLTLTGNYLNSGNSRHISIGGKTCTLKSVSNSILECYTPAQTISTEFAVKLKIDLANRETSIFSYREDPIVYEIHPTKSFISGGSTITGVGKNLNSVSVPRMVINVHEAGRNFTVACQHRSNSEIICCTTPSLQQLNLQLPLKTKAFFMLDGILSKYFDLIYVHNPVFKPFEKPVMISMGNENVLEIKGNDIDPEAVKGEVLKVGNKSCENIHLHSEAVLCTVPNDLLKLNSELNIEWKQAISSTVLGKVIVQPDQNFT
Chain of Met receptor on MDCK cells (Q75ZY9 whole entry, the tested form may be a part): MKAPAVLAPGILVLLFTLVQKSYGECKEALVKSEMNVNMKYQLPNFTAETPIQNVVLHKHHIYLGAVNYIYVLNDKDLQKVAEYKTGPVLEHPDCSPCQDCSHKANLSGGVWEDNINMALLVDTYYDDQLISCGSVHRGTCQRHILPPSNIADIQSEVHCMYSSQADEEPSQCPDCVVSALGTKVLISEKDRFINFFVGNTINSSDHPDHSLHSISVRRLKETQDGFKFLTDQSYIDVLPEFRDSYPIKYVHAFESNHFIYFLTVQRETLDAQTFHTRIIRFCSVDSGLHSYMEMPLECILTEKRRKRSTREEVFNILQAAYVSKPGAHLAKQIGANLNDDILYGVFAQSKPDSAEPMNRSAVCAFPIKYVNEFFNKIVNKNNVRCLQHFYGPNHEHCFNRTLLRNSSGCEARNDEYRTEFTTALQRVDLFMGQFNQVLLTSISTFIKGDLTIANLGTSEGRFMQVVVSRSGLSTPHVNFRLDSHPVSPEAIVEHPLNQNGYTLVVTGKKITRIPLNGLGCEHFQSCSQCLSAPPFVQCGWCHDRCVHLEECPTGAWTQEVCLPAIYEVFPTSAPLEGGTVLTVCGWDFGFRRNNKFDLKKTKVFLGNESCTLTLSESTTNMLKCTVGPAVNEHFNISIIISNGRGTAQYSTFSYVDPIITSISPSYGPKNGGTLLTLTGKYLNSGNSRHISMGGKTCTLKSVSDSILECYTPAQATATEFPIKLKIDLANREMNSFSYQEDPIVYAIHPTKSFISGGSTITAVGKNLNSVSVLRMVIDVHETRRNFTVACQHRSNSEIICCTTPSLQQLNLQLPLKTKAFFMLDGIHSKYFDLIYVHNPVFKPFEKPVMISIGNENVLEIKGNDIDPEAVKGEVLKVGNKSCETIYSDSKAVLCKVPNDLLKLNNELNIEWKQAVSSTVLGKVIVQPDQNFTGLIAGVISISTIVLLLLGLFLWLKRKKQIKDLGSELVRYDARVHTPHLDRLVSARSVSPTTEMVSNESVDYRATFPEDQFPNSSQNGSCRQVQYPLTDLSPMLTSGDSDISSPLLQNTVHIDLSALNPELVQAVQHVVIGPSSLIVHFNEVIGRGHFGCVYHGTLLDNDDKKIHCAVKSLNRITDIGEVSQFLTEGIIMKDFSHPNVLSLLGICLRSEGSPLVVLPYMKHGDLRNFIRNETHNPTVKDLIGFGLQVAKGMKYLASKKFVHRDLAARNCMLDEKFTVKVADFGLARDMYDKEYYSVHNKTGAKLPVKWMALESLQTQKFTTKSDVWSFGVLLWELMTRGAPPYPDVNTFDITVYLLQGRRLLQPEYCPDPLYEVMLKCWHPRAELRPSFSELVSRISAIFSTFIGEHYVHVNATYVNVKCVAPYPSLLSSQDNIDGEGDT

Binder | binding result [2] | binding result [3] | also measured
Aras-4 (ligand) YAEGQGKRRNTIHEFKKSAKTTLIKIDPALRIKTEKANTADQCANRCTRSKGLPFTCKAFVFDKARKRCLWFPFNSMSSGVKKEFGHEFDLYENKAYIRDCIIGRGRNYRGTVSITKSGIKCQPWSAMIPHEHSFLPSSYRGEDLRENYCRNPRGEEGGPWCYTSDPEVRYEVCDIPQCSEVE |  |  | inhibition of HGF-induced activation of Met, concentration against M2.2 D127A or NK1 N127A [1]: ~5 fold lower concentration
NK1 mutant M2.1 displayed on yeast (ligand, Yeast display fusion as for m10) YAEGQRKRRNTIHEFKKSAKTTLIKIDPALKIKTEKVNTADQCANRCTRNKGLPFTCKAFVFDKARKQCLWFPFNSMSSGVKKEFGHEFDLYENKDYIRDCIIGKGRSYRGTVSITKSGIKCQPWSSMIPHEHSFLPSSYRGEDLQENYCRNPRGEEGGPWCFTSDPEVRYEVCDIPQCSEVE | binds |  | 
NK1 mutant M2.2 displayed on yeast (ligand, Yeast display fusion as for m10) YAEGQRKRRNTIHEFKKSAKTTLIKIDPALKIKTEKVNTADQCANRCTRNKGLPFTCKAFVFDKARKRCLWFPFNSMSSGVKKEFGHEFDLYENKDYIRDCIIGNGRSYRGTVSITKSGIKCQPWSSMIPHEHSFLPSSYRGEDLRENYCRNPRGEEGGPWCFTSDPEVRYEVCDIPQCSEVE | binds |  | 
RTTTS (also called peptide artifact) [RTTTS peptide displayed on yeast] |  | no binding (tested: 10 nM FGFR1-Fc) | 
HTTS (also called peptide artifact) [HTTS peptide displayed on yeast] |  | no binding (tested: 10 nM FGFR1-Fc) | 
